According to patent publication US20060058189A1:

Target: PpFtsZ2-1-CFP fusion protein (Physcomitrella patens)
Assay: FRET by acceptor photobleaching, confocal microscopy, cotransfected Physcomitrella protoplasts (FtsZ2-1-CFP donor, FtsZ1-1-YFP acceptor)

Substance: PpFtsZ1-1-YFP fusion protein
- FRET efficiency: 36.5%
